# Results published in the supplement of paper PMC9112550, “Optimization of the antimicrobial peptide Bac7 by deep mutational scanning” (BMC Biology, 2022).
# System: Escherichia coli TOP10
# Assay: shrunken log2 fold change of peptide-encoding DNA abundance (4.5 h post-induction vs induction); higher = less antimicrobial activity (less host growth inhibition)
# Conditions: time post-induction: 4.5 h; library: site-saturation at positions 5, 18, 19, 20
# 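Also: peptides expressed intracellularly from a pBAD plasmid library in pooled LB shake-flask culture, induced with 0.3% L-arabinose, DNA abundance read by NGS, three biological replicates, DESeq2 with apeglm shrinkage.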
row,Sequence,shrunken log2 fold change
1,RRIRMRPPRLPRPRPRPTISPRP,0.0688
2,RRIRMRPPRLPRPRPRPTKKPRP,0.0359
3,RRIRMRPPRLPRPRPRPTKQPRP,0.296
4,RRIRMRPPRLPRPRPRPTKSPRP,0.459
5,RRIRMRPPRLPRPRPRPTLRPRP,0.334
6,RRIRMRPPRLPRPRPRPTNRPRP,0.282
7,RRIRMRPPRLPRPRPRPTPWPRP,0.844
8,RRIRMRPPRLPRPRPRPTPYPRP,0.2
9,RRIRMRPPRLPRPRPRPTREPRP,0.947
10,RRIRMRPPRLPRPRPRPTRFPRP,0.261
11,RRIRMRPPRLPRPRPRPTRTPRP,2.22
12,RRIRMRPPRLPRPRPRPTSCPRP,0.415
13,RRIRMRPPRLPRPRPRPTSGPRP,1.06
14,RRIRMRPPRLPRPRPRPTSSPRP,0.148
15,RRIRMRPPRLPRPRPRPTTCPRP,0.0613
16,RRIRMRPPRLPRPRPRPTTIPRP,-0.198
17,RRIRMRPPRLPRPRPRPTVMPRP,0.563
18,RRIRMRPPRLPRPRPRPTWEPRP,0.312
19,RRIRMRPPRLPRPRPRPTYNPRP,-0.361
20,RRIRMRPPRLPRPRPRPTYTPRP,-0.173
21,RRIRMRPPRLPRPRPRPVCIPRP,-0.0455
22,RRIRMRPPRLPRPRPRPVCQPRP,0.13

row,Sequence,shrunken log2 fold change
1,RRIRMRPPRLPRPRPRPVDYPRP,-0.0574
2,RRIRMRPPRLPRPRPRPVEMPRP,-0.0685
3,RRIRMRPPRLPRPRPRPVEPPRP,0.207
4,RRIRMRPPRLPRPRPRPVFDPRP,0.184
5,RRIRMRPPRLPRPRPRPVFEPRP,0.59
6,RRIRMRPPRLPRPRPRPVHIPRP,0.00544
7,RRIRMRPPRLPRPRPRPVHKPRP,-0.0081
8,RRIRMRPPRLPRPRPRPVKHPRP,0.0894
9,RRIRMRPPRLPRPRPRPVKKPRP,0.0481
10,RRIRMRPPRLPRPRPRPVMAPRP,0.266
11,RRIRMRPPRLPRPRPRPVPKPRP,1.11
12,RRIRMRPPRLPRPRPRPVPLPRP,-0.0409
13,RRIRMRPPRLPRPRPRPVQWPRP,0.155
14,RRIRMRPPRLPRPRPRPVRIPRP,0.238
15,RRIRMRPPRLPRPRPRPVRYPRP,0.64
16,RRIRMRPPRLPRPRPRPVSGPRP,0.594
17,RRIRMRPPRLPRPRPRPVSVPRP,0.699
18,RRIRMRPPRLPRPRPRPVVVPRP,-0.0177
19,RRIRMRPPRLPRPRPRPVWHPRP,0.137
20,RRIRMRPPRLPRPRPRPWAMPRP,0.0684
21,RRIRMRPPRLPRPRPRPWCNPRP,-0.016
22,RRIRMRPPRLPRPRPRPWCWPRP,0.366

row,Sequence,shrunken log2 fold change
1,RRIRMRPPRLPRPRPRPWDSPRP,-0.152
2,RRIRMRPPRLPRPRPRPWFAPRP,0.18
3,RRIRMRPPRLPRPRPRPWGNPRP,-0.00136
4,RRIRMRPPRLPRPRPRPWHLPRP,-0.00137
5,RRIRMRPPRLPRPRPRPWMAPRP,-0.0347
6,RRIRMRPPRLPRPRPRPWMQPRP,2.38
7,RRIRMRPPRLPRPRPRPWPEPRP,0.735
8,RRIRMRPPRLPRPRPRPWQAPRP,0.00735
9,RRIRMRPPRLPRPRPRPWRFPRP,0.0528
10,RRIRMRPPRLPRPRPRPWRSPRP,0.166
11,RRIRMRPPRLPRPRPRPWSVPRP,-0.0283
12,RRIRMRPPRLPRPRPRPWTQPRP,-0.0562
13,RRIRMRPPRLPRPRPRPWVIPRP,0.0191
14,RRIRMRPPRLPRPRPRPWVTPRP,-0.15
15,RRIRMRPPRLPRPRPRPWWDPRP,0.142
16,RRIRMRPPRLPRPRPRPWYHPRP,-0.00277
17,RRIRMRPPRLPRPRPRPWYKPRP,0.00884
18,RRIRMRPPRLPRPRPRPWYMPRP,-0.147
19,RRIRMRPPRLPRPRPRPYCNPRP,-0.189
20,RRIRMRPPRLPRPRPRPYDCPRP,-0.113
21,RRIRMRPPRLPRPRPRPYDRPRP,0.043
22,RRIRMRPPRLPRPRPRPYFSPRP,-0.177

row,Sequence,shrunken log2 fold change
1,RRIRMRPPRLPRPRPRPYGSPRP,-0.0489
2,RRIRMRPPRLPRPRPRPYGYPRP,0.0362
3,RRIRMRPPRLPRPRPRPYHLPRP,0.00229
4,RRIRMRPPRLPRPRPRPYINPRP,-0.574
5,RRIRMRPPRLPRPRPRPYIYPRP,-0.384
6,RRIRMRPPRLPRPRPRPYKDPRP,-0.947
7,RRIRMRPPRLPRPRPRPYKMPRP,-0.277
8,RRIRMRPPRLPRPRPRPYLVPRP,-0.016
9,RRIRMRPPRLPRPRPRPYMLPRP,-0.0122
10,RRIRMRPPRLPRPRPRPYNCPRP,-0.0909
11,RRIRMRPPRLPRPRPRPYPQPRP,0.0818
12,RRIRMRPPRLPRPRPRPYQQPRP,-0.00196
13,RRIRMRPPRLPRPRPRPYQVPRP,-0.393
14,RRIRMRPPRLPRPRPRPYRPPRP,-0.117
15,RRIRMRPPRLPRPRPRPYSFPRP,-0.266
16,RRIRMRPPRLPRPRPRPYTGPRP,0.042
17,RRIRMRPPRLPRPRPRPYVKPRP,-0.209
18,RRIRMRPPRLPRPRPRPYVVPRP,0.00957
19,RRIRMRPPRLPRPRPRPYVYPRP,-0.175
20,RRIRMRPPRLPRPRPRPYWDPRP,-0.0427
21,RRIRMRPPRLPRPRPRPYWNPRP,-1.04
22,RRIRMRPPRLPRPRPRPYWWPRP,0.0238

row,Sequence,shrunken log2 fold change
1,RRIRMRPPRLPRPRPRPYWYPRP,-0.0684
2,RRIRNRPPRLPRPRPRPAAVPRP,0.158
3,RRIRNRPPRLPRPRPRPADRPRP,-0.00994
4,RRIRNRPPRLPRPRPRPAESPRP,0.37
5,RRIRNRPPRLPRPRPRPAFQPRP,-0.0462
6,RRIRNRPPRLPRPRPRPAFRPRP,0.0513
7,RRIRNRPPRLPRPRPRPAGCPRP,0.00181
8,RRIRNRPPRLPRPRPRPAHDPRP,0.055
9,RRIRNRPPRLPRPRPRPAIIPRP,0.154
10,RRIRNRPPRLPRPRPRPAILPRP,-0.101
11,RRIRNRPPRLPRPRPRPAISPRP,-0.128
12,RRIRNRPPRLPRPRPRPAKIPRP,-0.405
13,RRIRNRPPRLPRPRPRPAKKPRP,-0.0505
14,RRIRNRPPRLPRPRPRPAKPPRP,-0.00229
15,RRIRNRPPRLPRPRPRPALVPRP,0.461
16,RRIRNRPPRLPRPRPRPANEPRP,-0.00326
17,RRIRNRPPRLPRPRPRPANFPRP,-0.193
18,RRIRNRPPRLPRPRPRPAPAPRP,0.959
19,RRIRNRPPRLPRPRPRPAPDPRP,0.147
20,RRIRNRPPRLPRPRPRPATDPRP,0.14
21,RRIRNRPPRLPRPRPRPATQPRP,-0.0108
